Results reported in IntAct's records for PubMed 35107372.

B1: Nucleolar RNA helicase 2 (Homo sapiens), Q9NR30 (parent)
chain: MPGKLRSDAGLESDTAMKKGETLRKQTEEKEKKEKPKSDKTEEIAEEEETVFPKAKQVKKKAEPSEVDMNSPKSKKAKKKEEPSQNDISPKTKSLRKKKEPIEKKVVSSKTKKVTKNEEPSEEEIDAPKPKKMKKEKEMNGETREKSPKLKNGFPHPEPDCNPSEAASEESNSEIEQEIPVEQKEGAFSNFPISEETIKLLKGRGVTFLFPIQAKTFHHVYSGKDLIAQARTGTGKTFSFAIPLIEKLHGELQDRKRGRAPQVLVLAPTRELANQVSKDFSDITKKLSVACFYGGTPYGGQFERMRNGIDILVGTPGRIKDHIQNGKLDLTKLKHVVLDEVDQMLDMGFADQVEEILSVAYKKDSEDNPQTLLFSATCPHWVFNVAKKYMKSTYEQVDLIGKKTQKTAITVEHLAIKCHWTQRAAVIGDVIRVYSGHQGRTIIFCETKKEAQELSQNSAIKQDAQSLHGDIPQKQREITLKGFRNGSFGVLVATNVAARGLDIPEVDLVIQSSPPKDVESYIHRSGRTGRAGRTGVCICFYQHKEEYQLVQVEQKAGIKFKRIGVPSATEIIKASSKDAIRLLDSVPPTAISHFKQSAEKLIEEKGAVEALAAALAHISGATSVDQRSLINSNVGFVTMILQCSIEMPNISYAWKELKEQLGEEIDSKVKGMVFLKGKLGVCFDVPTASVTEIQEKWHDSRRWQLSVATEQPELEGPREGYGGFRGQREGSRGFRGQRDGNRRFRGQREGSRGPRGQRSGGGNKSNRSQNKGQKRSFSKAFGQ

Variants of: B1
Settings: with ncap_sars2 N

Variant | effect of a mutation on the interaction
S375L;A376E | with no effect
D339H;E340G | with no effect
